Measurements taken from patent US20250236673A1 (Ablynx, published 2025).

Experiments:
CD8 = experiment: kinetics, method not stated in Example 3
human serum albumin [1] = biological target: T1, human serum albumin (human, UniProt P02768 25-609); experiment: SPR Biacore 8K+, HSA amine-coupled on C1 chip, ISVD analyte, 1:1 fit
T1 construct: Immobilised by amine coupling on a C1 chip; also called HSA

human serum albumin [2] = biological target: T1, human serum albumin; experiment: SPR on HSA (Example 2; same values as in Table 13)
soluble human TNFα = soluble human TNFα (human, UniProt P01375 77-233); experiment: cell-based or functional assay
Chain of soluble human TNFα (P01375 77-233 limits assumed): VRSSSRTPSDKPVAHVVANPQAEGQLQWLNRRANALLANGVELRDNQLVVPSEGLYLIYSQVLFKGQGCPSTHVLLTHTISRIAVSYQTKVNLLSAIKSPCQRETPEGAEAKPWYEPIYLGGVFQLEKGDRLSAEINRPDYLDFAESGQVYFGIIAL

[3] = biological target: T2, recombinant human CEACAM5 (human, UniProt P06731 35-685, limits assumed); experiment: SPR on CEACAM5 (Example 2; same values as in Table 13)
T2 construct: Immobilised by amine coupling on a CM5 chip
T2 sequence (looked up): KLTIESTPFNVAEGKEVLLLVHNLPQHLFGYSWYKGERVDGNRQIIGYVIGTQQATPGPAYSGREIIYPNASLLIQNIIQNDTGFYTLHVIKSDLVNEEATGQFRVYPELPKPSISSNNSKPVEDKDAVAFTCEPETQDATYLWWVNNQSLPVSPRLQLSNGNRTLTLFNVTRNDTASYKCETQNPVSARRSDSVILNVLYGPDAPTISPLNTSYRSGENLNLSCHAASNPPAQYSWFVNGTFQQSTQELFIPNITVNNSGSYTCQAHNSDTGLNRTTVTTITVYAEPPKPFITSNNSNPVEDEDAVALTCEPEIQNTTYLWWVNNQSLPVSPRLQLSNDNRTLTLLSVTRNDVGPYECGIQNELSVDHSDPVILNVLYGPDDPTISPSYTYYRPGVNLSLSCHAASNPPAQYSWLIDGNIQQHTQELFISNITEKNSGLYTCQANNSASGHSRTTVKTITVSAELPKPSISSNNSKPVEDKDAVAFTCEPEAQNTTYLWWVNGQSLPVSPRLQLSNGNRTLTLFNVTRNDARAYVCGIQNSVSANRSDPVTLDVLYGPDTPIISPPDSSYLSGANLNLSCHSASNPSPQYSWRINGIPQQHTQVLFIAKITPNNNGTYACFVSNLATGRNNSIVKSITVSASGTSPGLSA

[4] = biological target: T2, recombinant human CEACAM5; experiment: SPR Biacore 8K+, CEACAM5 amine-coupled on CM5, ISVD analyte, 1:1 fit

T1 sequence (P02768 25-609 limits assumed): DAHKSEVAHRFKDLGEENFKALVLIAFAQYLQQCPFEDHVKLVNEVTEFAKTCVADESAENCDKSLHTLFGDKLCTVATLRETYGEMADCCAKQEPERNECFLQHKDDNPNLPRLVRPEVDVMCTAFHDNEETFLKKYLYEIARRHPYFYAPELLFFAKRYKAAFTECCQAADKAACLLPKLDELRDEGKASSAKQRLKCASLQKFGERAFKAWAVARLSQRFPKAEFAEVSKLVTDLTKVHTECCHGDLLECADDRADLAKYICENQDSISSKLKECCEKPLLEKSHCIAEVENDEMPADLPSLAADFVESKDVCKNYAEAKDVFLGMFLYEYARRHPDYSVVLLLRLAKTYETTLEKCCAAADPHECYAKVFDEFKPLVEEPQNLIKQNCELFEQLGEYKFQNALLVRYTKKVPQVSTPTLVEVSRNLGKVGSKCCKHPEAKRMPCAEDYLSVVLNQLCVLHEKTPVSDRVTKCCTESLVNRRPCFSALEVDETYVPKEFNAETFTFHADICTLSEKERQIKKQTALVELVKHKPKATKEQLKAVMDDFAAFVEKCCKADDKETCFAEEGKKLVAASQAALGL

B1: A044301298 (VHH)
VHH: EVQLVESGGGVVQPGGSLRLSCAASGFTFEDYAIGWFRQAPGREREEVSCIRTYDEQTYYADSVRGRFTISRDNARNTVSLQMNSLRPEDTALYYCAAGSYYACAYYSRPDPSEGHVDLDYWGQGTLVTVSS
Work on B1 yielded a Kd (CD8) of 0.113 nM, a koff (CD8) of 0.000418 s⁻¹ and a kon (CD8) of 3.69e+06 M⁻¹ s⁻¹.

B2: A044301152 (VHH)
VHH: EVQLVESGGGVVQPGGSLRLSCAASGFTFEDYAIGWFRQAPGKEREEVSCIRTYDEQTYYADSVKGRFTISRDNAKNTVSLQMNSLRPEDTALYYCAAGSYYACAYYSRPDPSEGHVDLDYWGQGTLVTVSS
For B2, the Kd (CD8) was 0.122 nM, the koff (CD8) was 0.000412 s⁻¹ and the kon (CD8) was 3.37e+06 M⁻¹ s⁻¹.

B3: T028501805 (VHH)
VHH: EVQLVESGGGVVQPGGSLRLSCAASGFTFRSFGMSWVRQAPGKGPEWVSSISGSGSDTLYADSVKGRFTISRDNSKNTLYLQMNSLRPEDTALYYCTIGGSLSRSSQGTLVTVSS
notes: also called ALB00622; HSA006A06(K83R)
With B3 the Kd (human serum albumin [1]) was 1.28 nM, the koff (human serum albumin [1]) was 0.000992 s⁻¹ and the kon (human serum albumin [1]) was 772000 M⁻¹ s⁻¹. The Kd (human serum albumin [2]) was 1.28 nM, the koff (human serum albumin [2]) was 0.000992 s⁻¹ and the kon (human serum albumin [2]) was 772000 M⁻¹ s⁻¹.

B4: T031200258 (VHH)
VHH: DVQLVESGGGVVQPGGSLKLSCTASGFTFSTADMGWFRQAPGKGREFVARISGIDGTTYYDEPVKGRFTISRDNSKNTVYLQMNSLKPEDTALYYCRSPRYADQWSAYDYWGKGTLVTVSS
For B4, the “IC50, inhibition of human TNFα-induced NFkB activation (HEK293_NFkB-NLucP Nano luciferase reporter)” value (shortened to “IC50, inhibition”) (soluble human TNFα) was 6.09e-11 M (inferred; column head prints 'Average of ka (1/Ms)').

B5: T031200260 (VHH)
VHH: DVQLVESGGGVVQPGGSLKLSCTASGFTFSTADMGWFRQAPGKGREFVARISGIDGTTYYDEPVKGRFTISRDKSKNTVYLQMNSLKPEDTALYYCRSPRYADQWSAYDYWGKGTLVTVSS
In the case of B5, the “IC50, inhibition” value (soluble human TNFα) is reported as 5.34e-11 M (inferred; column head prints 'Average of ka (1/Ms)').

B6: T031200259 (VHH)
VHH: DVQLVESGGGVVQPGGSLKLSCTASGFTFSTADMGWFRQAPGKGREFVARISGIDGTTYYDEPVKGRFTISKDNSKNTVYLQMNSLKPEDTALYYCRSPRYADQWSAYDYWGKGTLVTVSS
With B6 the “IC50, inhibition” value (soluble human TNFα) was 4.82e-11 M (inferred; column head prints 'Average of ka (1/Ms)').

B7: T028501789 (VHH)
VHH: EVQLVESGGGVVQPGGSLRLSCAASGLTFSTYTMGWFRQAPGKEREFVAAIIWSGSNTYYADSVKGRFTISRDNAKNTVYLQMNSLRPEDTALYYCAAQHFGPIGLTTRGYHYWGQGTLVTVSS
notes: also called A031500384; A0315007E07(L11V, S76N, N82bS, E83R, V89L, H91Y, N101H)
In the case of B7, the Kd [3] is reported as 1.24 nM, the koff [3] is reported as 0.000885 s⁻¹ and the kon [3] is reported as 716000 M⁻¹ s⁻¹. For the same binder, the Kd [4] was 1.24 nM, the koff [4] was 0.000885 s⁻¹ and the kon [4] was 716000 M⁻¹ s⁻¹.
